According to article PMC13169712:
Square brackets hold non-standard residues; d marks the D form. Ends that are not written are not given here. Hyp = O=C(O)[C@@H]1C[C@@H](O)CN1

What was measured:
[1] = target: 38B7 human IgE mAb (human); assay: SPR; Carterra LSA; antibody as ligand, allergen or peptide as analyte; how the antibody was held for these pairs is not told
[2] = target: 13D9 human IgE mAb; assay: ELISA; settings: chain shown with the change; mAb 10 µg/mL (highest point of the titration); parent: est. 3.5; read off a plot
Sequence of 13D9 human IgE mAb (chain, as listed by the source, chain 1 of 2): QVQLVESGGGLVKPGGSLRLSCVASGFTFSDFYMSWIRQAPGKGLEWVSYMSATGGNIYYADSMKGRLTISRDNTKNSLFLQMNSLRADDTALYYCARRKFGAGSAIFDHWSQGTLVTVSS
Sequence of 13D9 human IgE mAb (chain, as listed by the source, chain 2 of 2): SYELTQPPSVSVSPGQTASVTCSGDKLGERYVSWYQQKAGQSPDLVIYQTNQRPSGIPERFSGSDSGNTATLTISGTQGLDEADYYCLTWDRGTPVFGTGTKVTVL

[3] = target: 16A8 human IgE mAb; assay: ELISA; settings: chain shown with the change; mAb 10 µg/mL (highest point of the titration); parent: est. 3.4; read off a plot
Sequence of 16A8 human IgE mAb (chain, as listed by the source, chain 1 of 2): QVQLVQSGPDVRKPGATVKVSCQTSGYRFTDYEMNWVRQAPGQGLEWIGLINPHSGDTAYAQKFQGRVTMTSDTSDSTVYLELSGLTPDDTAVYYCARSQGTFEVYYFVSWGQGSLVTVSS
Sequence of 16A8 human IgE mAb (chain, as listed by the source, chain 2 of 2): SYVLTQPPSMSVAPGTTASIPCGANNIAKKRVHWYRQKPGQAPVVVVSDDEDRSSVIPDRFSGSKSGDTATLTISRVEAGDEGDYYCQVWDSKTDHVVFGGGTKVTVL

[4] = target: 1H9 human IgE mAb; assay: ELISA; settings: chain shown with the change; mAb 10 µg/mL (highest point of the titration); parent: est. 3.3; read off a plot
Sequence of 1H9 human IgE mAb (chain, as listed by the source, chain 1 of 2): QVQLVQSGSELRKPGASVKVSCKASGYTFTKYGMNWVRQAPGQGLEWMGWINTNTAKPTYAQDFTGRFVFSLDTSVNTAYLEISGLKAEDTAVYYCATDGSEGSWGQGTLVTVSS
Sequence of 1H9 human IgE mAb (chain, as listed by the source, chain 2 of 2): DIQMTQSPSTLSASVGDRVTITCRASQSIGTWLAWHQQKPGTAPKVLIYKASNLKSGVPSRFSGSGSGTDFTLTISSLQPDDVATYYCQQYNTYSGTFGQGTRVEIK

[5] = target: 8F3 human IgE mAb; assay: ELISA; settings: chain shown with the change; mAb 10 µg/mL (highest point of the titration); parent: est. 3.6; read off a plot
Sequence of 8F3 human IgE mAb (chain, as listed by the source, chain 1 of 2): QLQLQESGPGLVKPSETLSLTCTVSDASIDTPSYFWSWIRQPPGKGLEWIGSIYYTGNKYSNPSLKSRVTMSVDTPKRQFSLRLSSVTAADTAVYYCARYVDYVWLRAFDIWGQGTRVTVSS
Sequence of 8F3 human IgE mAb (chain, as listed by the source, chain 2 of 2): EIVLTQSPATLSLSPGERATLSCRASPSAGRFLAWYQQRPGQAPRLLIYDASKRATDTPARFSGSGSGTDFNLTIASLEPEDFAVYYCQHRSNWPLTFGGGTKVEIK

Sequence of 38B7 human IgE mAb (human) (heavy, as listed by the source, chain 1 of 2): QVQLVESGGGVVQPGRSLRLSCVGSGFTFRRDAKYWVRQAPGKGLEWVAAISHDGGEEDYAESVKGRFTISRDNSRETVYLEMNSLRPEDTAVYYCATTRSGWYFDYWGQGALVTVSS
Sequence of 38B7 human IgE mAb (human) (light, as listed by the source, chain 2 of 2): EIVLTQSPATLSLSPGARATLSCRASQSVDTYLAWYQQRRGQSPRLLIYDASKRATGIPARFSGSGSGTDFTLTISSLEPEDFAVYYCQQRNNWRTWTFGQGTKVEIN

| Binder | Kd [1] [µM] | koff [1] [s⁻¹] | kon [1] [M⁻¹ s⁻¹] | response [2] [OD 450nm] | response [3] [OD 450nm] | response [4] [OD 450nm] | response [5] [OD 450nm] |
| --- | --- | --- | --- | --- | --- | --- | --- |
| Ara h 6c R90Q; Q91A (protein) SCERQVDRVNLKPCEQHIMQRIMGEQEQYDSYDIRSTRSSDQQQRCCDELNEMENTQGCMCEALQQIMENQCDRLQDQAMVQQFKRELMSLPQQCNFRAPQRCDLDVSGGRC |  |  |  | 3.5 | 3.4 | 1.6 | 3.6 |
| Ara h 6c Q113R; R114E (protein) SCERQVDRVNLKPCEQHIMQRIMGEQEQYDSYDIRSTRSSDQQQRCCDELNEMENTQGCMCEALQQIMENQCDRLQDRQMVQQFKRELMSLPQQCNFRAPRECDLDVSGGRC |  |  |  | 3.5 | 2.6 | 3.4 |  |
| Ara h 6c D19R; E27A; N82A (protein) SCERQVRRVNLKPCAQHIMQRIMGEQEQYDSYDIRSTRSSDQQQRCCDELNEMENTQGCMCEALQQIMEAQCDRLQDRQMVQQFKRELMSLPQQCNFRAPQRCDLDVSGGRC |  |  |  | 1.6 |  |  |  |

Next, values leading:

| Kd [1] [µM] | koff [1] [s⁻¹] | kon [1] [M⁻¹ s⁻¹] | response [2] [OD 450nm] | response [3] [OD 450nm] | response [4] [OD 450nm] | response [5] [OD 450nm] | Binder |
| --- | --- | --- | --- | --- | --- | --- | --- |
| 0.02 | 0.00198 | 101000 |  |  |  |  | EDSYERDPYS[Hyp]SQD [hydroxylated DPYSPS containing peptide (…^OHSQD)] |
| 7.1 | 0.0887 | 16900 |  |  |  |  | EDSYERDPYSPSQD [nonhydroxylated DPYSPS containing peptide (…)] |
